The results in this text go back to publication PMC12052123, “Investigating the quaternary structure of a homomultimeric catechol 1,2-dioxygenase: An integrative structural biology study” (PLOS One, 2025).

This data set deals with the molecule itself. The experiment in a line: native gel or EMSA; semi-native PAGE (8%), Tris-Gly buffer system without detergent or denaturing agents, 100 V, 18 °C, Coomassie; lyophilized and reconstituted SfC12DO. Background: In EMSA bound probe runs differently from free probe, usually more slowly.

B1: catechol 1,2-dioxygenase from Stutzerimonas frequens GOM2 (enzyme, UniProt A0ABX6XR78 1-312, looked up)
chain: MTVKISHTNDVQQFFKEASGFNNDAGSSRLKTVINRVLADTARIIEDLEITQDEFWKAVDYINRLGGRHEAGLLVAGLGLEHYLDLLQDAKDEQEGLVGGTPRTIEGPLYVAGAPIAEGEVRMDDDSEEGVATTMFLQGRVTGPDGKPLAGATVDLWHANTKGNYSYFDKSQSEYNLRRRIVTDENGYYRARSIVPSGYGCSPDGPTQEVLDMLGRHGQRPAHIHFFISAPGHRHLTTQINLAGDKYLWDDFAYATRDGLVGDIRFIDDAEAARARGVQGRFAEVDFDFQLQKAPAPQAEQRSKRPRALQQA
notes: catechol 1,2-dioxygenase encoded by the CatA gene of Stutzerimonas frequens GOM2 (Pseudomonas stutzeri GOM2); regions are labelled up to residue 312; Non-heme Fe3+ enzyme; Number of copies depends on the sample: dimer when non-lyophilized; dimer, tetramer, (hexamer), octamer and >20-mer after lyophilization and reconstitution; also called SfC12DO; PsC12DO; source: used non-lyophilized, or …
Usually stoichiometry N stands for the number of molecules, sites or subunits per partner or assembly. For the protein B1, the “stoichiometry N” value amounted to 6.
